Test results reported in paper PMC12037675, “Design of self-emulsifying oral delivery systems for semaglutide: reverse micelles versus hydrophobic ion pairs” (Drug Delivery and Translational Research, 2024).
Each block holds one compound with its values, some of them ahead of it.

Assays:
Caco-2 monolayer = assay: Caco-2 permeation study; format: in vitro ADME, human; settings: Caco-2 on 24-well Transwell, 21 days, apical to basolateral, HBS pH 6.8, SEDDS 0.05% (v/v), 6 h; ELISA; means n = 4
Description: The ability of native semaglutide as well as semaglutide-RM loaded SEDDS and SEDDS containing HIP to permeate the intestinal epithelium was investigated using Caco-2 cells. Caco-2 cell line was seeded on a 24-well Transwell filters plate at a cell density of 1.25 × 10^5 cells/cm^2. Cells were cultivated for 21 days replacing the media every second day. On the day of the experiment, cells were washed twice using sterile HBS buffer pH 6.8. To start the experiment after the equilibration period, the buffer was removed and replaced with 100 µL of either native semaglutide solution in sterile HBS buffer pH 6.8 or semaglutide-RMs loaded SEDDS diluted to a concentration of 0.05% (v/v) with sterile HBS buffer pH 6.8. Sterile HBS buffer (500 µL) was added to basolateral side. At predetermined time points, 100 µL were withdrawn from basolateral chambers and replaced with prewarmed HBS. The amount of semaglutide in the basolateral chamber was measured through ELISA (KRIBIOLISA™ Semaglutide ELISA, Krishgen BioSystems, US). Transepithelial electric resistance (TEER) in a range of 1200–3300 ohm/cm^2 were measured ensuring integrity of cell monolayers (Evom2, World Precision Instrument Inc., USA).

[1] = Solubility of (poly)peptides in lipid phases via reverse micelles (dry addition) or HIP; format: physicochemical
Description: (Poly)peptide loaded RM were prepared utilizing 200 mM of surfactants dissolved within the oily phase (GML/C8 (1:4; m/m), GMCC/C8 (1:4; m/m) and GMCC/GML (1:4; m/m)) in order to guarantee formation of reverse micelles. Loaded reverse micelles were prepared by the addition of semaglutide to surfactant-oil solutions (200 mM ELA or 200 mM DOC) resulting in a final concentration of 50 mg/mL. The mixtures were vortexed and treated with ultrasound for 30 min before incubation at 1200 rpm at room temperature (RT). Formation of reverse micelles by dry addition method, describing the direct addition of the API in powdered form to lipophilic solvents without use of any additional solvents, was investigated for semaglutide and three further (poly)peptides for comparison. In that regard, semaglutide with a molecular weight of 4.1 kDa was compared to colistin representing the smallest investigated peptide (1.1 kDa). In addition, two larger polypeptides, lysozyme (LYS, 14.4 kDa) and bovine serum albumin (BSA, 66.4 kDa) were investigated. At predetermined time points the dissolved (poly)peptide in supernatant was quantified by HPLC after centrifugation at 12,045 RCF for 10 min.

[2] = Hydrophobic ion pairing with ethyl lauroyl arginate: precipitation efficiency; format: physicochemical; settings: 1:1 charge ratio (peptide:surfactant), peptide in 0.001 M NaOH, 2 h, 400 rpm, ambient temperature; mean ± SD
Description: Hydrophobic ion pairs were formed in order to increase lipophilicity of semaglutide according to previous studies. The peptide was dissolved in 0.001 M NaOH in a concentration of 10 mg/ml to obtain a negative net charge. Ethyl lauroyl arginate, as a cationic counter ion was dissolved in demineralized water. Equal amounts (500 µL: 500 µL) of peptide and surfactant solution were combined corresponding to a charge ratio of 1:1 (peptide:surfactant). Samples were agitated at 400 rpm for 2 h on a thermomixer (Eppendorf, Austria) at ambient temperature. Precipitates were separated from the solution by centrifugation at 12,045 RCF for 10 min (Minispin, Eppendorf, Austria). Precipitation efficiency was determined according to the following equation:1 [drawing 1]

[3] = cited from earlier work
log D lipid phase/water = format: physicochemical
Description: Retention of drug within lipid phase after emulsification is crucial for the active ingredient to reach the absorption membrane in intact form. Thus, high log Dlipid phase/water values are substantial for lipophilic complexes of semaglutide. In brief, 200 µL of peptide loaded RM or HIP complexes corresponding to 2 mg of semaglutide in the lipid phases GML/C8 (1:4; m/m), […] were underlaid with 200 µL of demineralized water and incubated at 300 rpm on a thermomixer for 24 h. In the following samples were centrifuged at 12,045 RCF for 10 min and 100 µL aliquots from both phases were withdrawn and the amount of peptide was quantified by HPLC. The distribution coefficient was calculated according to Eq. 3:3 [drawing 5]
where [drawing 6] corresponds to peptide concentration in the lipophilic phase after incubation and [drawing 7] to peptide concentration in the water phase after incubation. Log Dlipid phase/water values for reference (poly)peptides were determined in the same manner.

Apparent permeability coefficient (Papp) (Caco-2 monolayer): significantly lower Papp value | Maximum solubility within reverse micelles ([1]; after 48 h to 72 h, dry addition, 200 mM ELA or DOC, 50 mg/mL added, RT, HPLC, means n ≥ 3): ~100% | Solubility in RM in comparison to HIP ([1]; best performing lipid phase glycerol monocaprylocaprate:caprylic acid 1:4 (m/m)): at least 2 fold
Compound: CC[C@H](C)[C@H](NC(=O)[C@H](Cc1ccccc1)NC(=O)[C@H](CCC(=O)O)NC(=O)[C@H](CCCCNC(=O)COCCOCCNC(=O)COCCOCCNC(=O)CC[C@H](NC(=O)CCCCCCCCCCCCCCCCC(=O)O)C(=O)O)NC(=O)[C@H](C)NC(=O)[C@H](C)NC(=O)[C@H](CCC(N)=O)NC(=O)CNC(=O)[C@H](CCC(=O)O)NC(=O)[C@H](CC(C)C)NC(=O)[C@H](Cc1ccc(O)cc1)NC(=O)[C@H](CO)NC(=O)[C@H](CO)NC(=O)[C@@H](NC(=O)[C@H](CC(=O)O)NC(=O)[C@H](CO)NC(=O)[C@@H](NC(=O)[C@H](Cc1ccccc1)NC(=O)[C@@H](NC(=O)CNC(=O)[C@H](CCC(=O)O)NC(=O)C(C)(C)NC(=O)[C@@H](N)Cc1cnc[nH]1)[C@@H](C)O)[C@@H](C)O)C(C)C)C(=O)N[C@@H](C)C(=O)N[C@@H](Cc1c[nH]c2ccccc12)C(=O)N[C@@H](CC(C)C)C(=O)N[C@H](C(=O)N[C@@H](CCCNC(=N)N)C(=O)NCC(=O)N[C@@H](CCCNC(=N)N)C(=O)NCC(=O)O)C(C)C [semaglutide]

Compound: bovine serum albumin [66.4 kDa reference polypeptide]
Precipitation efficiency of HIP with ethyl lauroyl arginate [2]: 39.1 ± 2.2% | Solubility within reverse micelles ([1]; even after prolonged incubation time, dry addition, 200 mM surfactant, RT, HPLC): below 1 mg/mL | Isoelectric point (IEP) [3]: 5.0

Change in lipophilicity (log D lipid phase/water) in RM (log D lipid phase/water; RM formed with docusate): enhanced lipophilicity | Change in lipophilicity (log D lipid phase/water) in RM (log D lipid phase/water; RM formed with ethyl lauroyl arginate): almost no increase in lipophilicity
Compound: colistin [1.1 kDa reference peptide]
Isoelectric point (IEP) [3]: 5.0

Compound: lysozyme [14.4 kDa reference polypeptide]
Precipitation efficiency of HIP with ethyl lauroyl arginate [2]: 0.0 ± 1.7% | Improvement in lipophilicity in RM compared to the native peptide (log D lipid phase/water; log D lipid phase/water, RM): up to 600 fold | Solubility in RM, times lower compared to semaglutide ([1]; reverse micelles, dry addition, pronounced increase only after 72 h): about 10 times | Isoelectric point (IEP) [3]: 11.0
